The data set deals with the molecule itself. In words: SDS-PAGE under non-reducing and reducing conditions with Western blot. For orientation: Immunoblotting shows a protein as a band on a membrane.

One protein from PMC2193935 (The Journal of Experimental Medicine, 2002) can be followed below.

B1: Epo-Fc/IHH (Epo-Fc with three inactivating point mutations in the FcRn-binding site of the Fc domain) (Fc fusion)
chain: APPRLICDSRVLERYILEAKEAENVTMGCAEGPRLSENITVPDTKVNFYAWKRMEVEEQAIEVWQGLSLLSEAILQAQALLANSSQPPETLQLHIDKAISGLRSLTSLLRVLGAQKELMSPPDTTPPAPLRTLTVDTFCKLFRVYANFLRGKLKLYTGEVCRRGDRGGSGGSVPRDCGCKPCICTVPEVSSVFIFPPKPKDVLTATLTPKVTCVVVDISKDDPEVQFSWFVDDVEVHTAQTQPREEQFNSTFRSVSELPIMAQDWLNGKEFKCRVNSAAFPAPIEKTISKTKGRPKAPQVYTIPPPKEQMAKDKVSLTCMITDFFPEDITVEWQWNGQPAENYKNTQPIMNTNGSYFVYSKLNVQKSNWEAGNTFTCSVLHEGLHNAHTEKSLSHSPGK
modifications: glycosylated (oligosaccharides cleaved by PNGase F)
As a reminder, the stoichiometry N is a count of units in the complex or per binding partner. Take B1: the “stoichiometry N” value was found to be 2.
